Non-standard residues stand in square brackets, D forms with d. pT = C[C@@H](OP(=O)(O)O)[C@H](N)C(=O)O
T1: full length PEAK3 (PEAK3^FL, residues 1-473), from E. coli, phosphorylated by Src (human), Q6ZS72
T1 chain: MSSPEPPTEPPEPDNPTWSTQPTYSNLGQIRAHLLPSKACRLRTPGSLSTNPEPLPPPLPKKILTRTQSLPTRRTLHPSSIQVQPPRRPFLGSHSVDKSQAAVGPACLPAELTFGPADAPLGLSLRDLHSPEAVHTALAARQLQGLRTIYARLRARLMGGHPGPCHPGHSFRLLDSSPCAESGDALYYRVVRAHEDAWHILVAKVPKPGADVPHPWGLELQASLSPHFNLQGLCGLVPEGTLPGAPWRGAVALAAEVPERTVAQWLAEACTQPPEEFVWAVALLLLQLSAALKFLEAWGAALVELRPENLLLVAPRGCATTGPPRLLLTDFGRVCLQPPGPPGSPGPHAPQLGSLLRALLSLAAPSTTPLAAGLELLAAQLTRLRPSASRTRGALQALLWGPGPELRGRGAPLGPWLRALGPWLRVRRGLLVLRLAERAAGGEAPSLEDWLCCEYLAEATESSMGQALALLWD

T2: full length PEAK3 (PEAK3^FL, residues 1-473), from E. coli (human), Q6ZS72
T2 chain: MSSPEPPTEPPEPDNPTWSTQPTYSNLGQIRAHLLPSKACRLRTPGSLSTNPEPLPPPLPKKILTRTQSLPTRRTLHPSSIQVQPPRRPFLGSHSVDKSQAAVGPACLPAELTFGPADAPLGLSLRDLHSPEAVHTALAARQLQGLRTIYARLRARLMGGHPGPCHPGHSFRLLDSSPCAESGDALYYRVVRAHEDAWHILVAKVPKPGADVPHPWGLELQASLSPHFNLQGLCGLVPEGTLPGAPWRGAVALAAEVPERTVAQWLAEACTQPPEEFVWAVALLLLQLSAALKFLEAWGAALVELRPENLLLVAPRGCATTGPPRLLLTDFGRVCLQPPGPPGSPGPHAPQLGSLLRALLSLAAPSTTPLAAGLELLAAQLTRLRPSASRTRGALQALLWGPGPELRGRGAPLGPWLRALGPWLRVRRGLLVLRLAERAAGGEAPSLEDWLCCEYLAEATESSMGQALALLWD

T3: full length PEAK3 (PEAK3^FL, residues 1-473), from insect cells, phosphorylated by Src (human), Q6ZS72
T3 chain: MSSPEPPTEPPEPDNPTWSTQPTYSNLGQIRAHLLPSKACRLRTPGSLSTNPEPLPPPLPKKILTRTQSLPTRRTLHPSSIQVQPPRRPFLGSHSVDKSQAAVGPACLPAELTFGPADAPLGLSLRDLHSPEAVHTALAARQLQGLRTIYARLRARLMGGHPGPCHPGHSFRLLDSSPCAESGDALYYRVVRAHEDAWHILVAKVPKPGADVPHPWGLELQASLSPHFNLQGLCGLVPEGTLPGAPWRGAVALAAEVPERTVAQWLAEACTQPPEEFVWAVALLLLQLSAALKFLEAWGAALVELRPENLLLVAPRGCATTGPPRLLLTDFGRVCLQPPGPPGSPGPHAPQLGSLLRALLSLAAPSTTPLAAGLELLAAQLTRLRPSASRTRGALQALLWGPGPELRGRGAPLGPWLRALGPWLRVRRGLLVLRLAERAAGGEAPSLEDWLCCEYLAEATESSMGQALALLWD

T4: PEAK3^FL from insect cells, phosphorylated by Src (human), Q6ZS72
T4 chain: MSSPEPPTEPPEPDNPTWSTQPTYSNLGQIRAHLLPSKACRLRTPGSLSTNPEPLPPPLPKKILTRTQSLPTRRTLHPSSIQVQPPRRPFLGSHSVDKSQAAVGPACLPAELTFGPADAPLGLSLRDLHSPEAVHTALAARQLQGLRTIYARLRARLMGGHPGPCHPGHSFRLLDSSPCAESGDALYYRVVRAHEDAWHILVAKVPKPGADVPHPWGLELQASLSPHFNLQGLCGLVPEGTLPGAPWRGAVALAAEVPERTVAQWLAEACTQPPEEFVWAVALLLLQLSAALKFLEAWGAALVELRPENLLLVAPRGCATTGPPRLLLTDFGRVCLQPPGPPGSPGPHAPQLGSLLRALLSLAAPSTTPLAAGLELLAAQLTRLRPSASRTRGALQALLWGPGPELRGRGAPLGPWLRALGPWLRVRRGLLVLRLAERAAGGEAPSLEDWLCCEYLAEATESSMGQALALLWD

T5: full length PEAK3 from insect cells (PEAK3^FL, S69 phosphorylated) (human), Q6ZS72
T5 chain: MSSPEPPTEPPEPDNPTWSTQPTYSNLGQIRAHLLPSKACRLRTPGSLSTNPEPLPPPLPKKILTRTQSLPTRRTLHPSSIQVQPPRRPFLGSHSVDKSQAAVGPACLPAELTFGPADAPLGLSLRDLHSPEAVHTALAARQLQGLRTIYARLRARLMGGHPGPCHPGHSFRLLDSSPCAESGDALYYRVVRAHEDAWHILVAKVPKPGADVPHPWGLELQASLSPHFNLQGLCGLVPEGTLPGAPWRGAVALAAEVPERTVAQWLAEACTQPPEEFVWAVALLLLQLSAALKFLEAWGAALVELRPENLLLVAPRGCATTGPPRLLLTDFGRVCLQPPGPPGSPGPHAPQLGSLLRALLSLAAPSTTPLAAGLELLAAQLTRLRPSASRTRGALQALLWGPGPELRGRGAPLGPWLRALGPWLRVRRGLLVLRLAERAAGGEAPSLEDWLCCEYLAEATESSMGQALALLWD

T6: PEAK3^FL from E. coli, phosphorylated by Src (human), Q6ZS72
T6 chain: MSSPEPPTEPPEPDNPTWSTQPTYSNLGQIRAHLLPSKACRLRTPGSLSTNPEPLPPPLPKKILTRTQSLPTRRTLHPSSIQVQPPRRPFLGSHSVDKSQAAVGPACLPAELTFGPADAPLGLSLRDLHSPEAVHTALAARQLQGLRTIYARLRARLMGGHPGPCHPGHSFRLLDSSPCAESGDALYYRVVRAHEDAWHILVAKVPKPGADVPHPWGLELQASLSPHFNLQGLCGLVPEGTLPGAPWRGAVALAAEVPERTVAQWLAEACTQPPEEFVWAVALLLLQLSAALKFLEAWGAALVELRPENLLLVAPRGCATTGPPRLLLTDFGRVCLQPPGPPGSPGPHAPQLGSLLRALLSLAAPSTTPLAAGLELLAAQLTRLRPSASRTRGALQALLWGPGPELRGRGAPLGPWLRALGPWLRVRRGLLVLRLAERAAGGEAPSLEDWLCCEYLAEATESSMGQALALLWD


Assays:
[1] = molecular target: T1, full length PEAK3 (PEAK3^FL, residues …); assay: SPR; biotinylated PEAK proteins (with or without Src phosphorylation) captured with a biotin CAPture kit; Grb2 FL, Grb2 SH2, CrkII SH2, CrkII FL monomer or dimer as analytes; Biacore 8K+, 20 °C, HBS-TP with NaCl raised to 500 mM; 1 M NaCl regeneration; steady state; conditions: remark: other sources report otherwise
[2] = molecular target: T2, full length PEAK3 (PEAK3^FL, residues …); assay: as above; conditions: remark: other sources report otherwise
[3] = molecular target: T3, full length PEAK3 (PEAK3^FL, residues …); assay: as above; conditions: remark: other sources report otherwise
[4] = molecular target: T4, PEAK3^FL from insect cells, …; assay: SPR; conditions: natural protein, biotin (EZ-Link NHS-PEG4-Biotin) where immobilised for SPR, phosphotyrosine at 24 (by Src in vitro, MS/MS), phosphoserine at 69, remark: other sources report otherwise
[5] = molecular target: T5, full length PEAK3 from insect cells …; assay: SPR; conditions: natural protein, biotin (EZ-Link NHS-PEG4-Biotin) where immobilised for SPR, phosphoserine at 69, remark: other sources report otherwise
[6] = molecular target: T6, PEAK3^FL from E. coli, phosphorylated …; assay: SPR; conditions: natural protein, biotin (EZ-Link NHS-PEG4-Biotin) where immobilised for SPR, phosphotyrosine at 24 (by Src in vitro; the MS/MS was told for PEAK3^FL in general), remark: other sources report otherwise
[7] = molecular target: full length CrkII, dimer (CrkIIFL dimer) (human), P46108; assay: SEC-MALS; Superdex 200 Increase 10/300 GL, 20 mM HEPES pH 7.5, 150 mM NaCl, 1 mM TCEP, 0.5 ml/min; conditions: remark: other sources report otherwise
[8] = molecular target: 14-3-3η (residues 1-246) (human); assay: SPR; 14-3-3 isoforms amine coupled to a CM5 chip, tandem peptides as analytes (10 µM-10 nM for PEAK3 tandem-pS69, 20 µM-20 nM for all others); Biacore S200, 20 °C, HBS-TP; steady state, 1:1 model
[9] = molecular target: 14-3-3γ (residues 1-247) (human); assay: as above
14-3-3σ (sigma) (human) = assay: as above
Chain of 14-3-3σ (sigma) (human) (A8K1N0 whole entry): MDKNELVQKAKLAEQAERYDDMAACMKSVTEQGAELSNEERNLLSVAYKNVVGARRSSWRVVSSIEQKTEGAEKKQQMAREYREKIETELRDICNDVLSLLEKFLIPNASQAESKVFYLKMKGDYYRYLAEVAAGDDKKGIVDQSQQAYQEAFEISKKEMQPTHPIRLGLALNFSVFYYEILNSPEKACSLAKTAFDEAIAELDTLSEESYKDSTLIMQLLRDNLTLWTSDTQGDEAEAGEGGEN

| Binder | Kd [2] | Kd [3] | Kd [5] | Kd [6] | Kd [8] | Kd [9] | Kd (14-3-3σ (sigma) (human)) | other results |
| --- | --- | --- | --- | --- | --- | --- | --- | --- |
| full length CrkII, dimer (CrkII^FL dimer), P46108-1 1-304 (natural protein) MAGNFDSEERSSWYWGRLSRQEAVALLQGQRHGVFLVRDSSTSPGDYVLSVSENSRVSHYIINSSGPRPPVPPSPAQPPPGVSPSRLRIGDQEFDSLPALLEFYKIHYLDTTTLIEPVSRSRQGSGVILRQEEAEYVRALFDFNGNDEEDLPFKKGDILRIRDKPEEQWWNAEDSEGKRGMIPVPYVEKYRPASASVSALIGGNQEGSHPQPLGGPEPGPYAQPSVNTPLPNLQNGPIYARVIQKRVPNAYDKTALALEVGELVKVTKINVSGQWEGECNGKRGHFPFTHVRLLDQQNPDEDFS | 7600 nM | 2180 nM | 2400 nM | 2100 nM | – | – | – | Kd [1]: 2110 nM; Kd [4]: 2200 nM |
| full length CrkII, monomer (CrkII^FL monomer), P46108-1 1-304 (natural protein) MAGNFDSEERSSWYWGRLSRQEAVALLQGQRHGVFLVRDSSTSPGDYVLSVSENSRVSHYIINSSGPRPPVPPSPAQPPPGVSPSRLRIGDQEFDSLPALLEFYKIHYLDTTTLIEPVSRSRQGSGVILRQEEAEYVRALFDFNGNDEEDLPFKKGDILRIRDKPEEQWWNAEDSEGKRGMIPVPYVEKYRPASASVSALIGGNQEGSHPQPLGGPEPGPYAQPSVNTPLPNLQNGPIYARVIQKRVPNAYDKTALALEVGELVKVTKINVSGQWEGECNGKRGHFPFTHVRLLDQQNPDEDFS | 14100 nM | 2700 nM | 12800 nM | 2600 nM | – | – | – | – |
| full length CrkII, dimer (CrkIIFL dimer), P46108-1 1-304 (natural protein, here or on the partner: biotin (EZ-Link NHS-PEG4-Biotin) in the SPR experiment only; biotin (EZ-Link NHS-PEG4-Biotin) in the SPR experiment only) MAGNFDSEERSSWYWGRLSRQEAVALLQGQRHGVFLVRDSSTSPGDYVLSVSENSRVSHYIINSSGPRPPVPPSPAQPPPGVSPSRLRIGDQEFDSLPALLEFYKIHYLDTTTLIEPVSRSRQGSGVILRQEEAEYVRALFDFNGNDEEDLPFKKGDILRIRDKPEEQWWNAEDSEGKRGMIPVPYVEKYRPASASVSALIGGNQEGSHPQPLGGPEPGPYAQPSVNTPLPNLQNGPIYARVIQKRVPNAYDKTALALEVGELVKVTKINVSGQWEGECNGKRGHFPFTHVRLLDQQNPDEDFS | – | – | – | – | – | – | – | stoichiometry N [7]: 2 |
| Ac-PPPLPKKMIIRAN[pT]EPISKD-NH2 [PEAK1 tandem-pT1165 peptide (residues 1152-1171)] | – | – | – | – | 2560 nM | 1770 nM | 9700 nM | – |
| Ac-PPPLPKKMIIRANTEPISKD-NH2 [PEAK1 tandem peptide, non-phosphorylated (residues 1152-1171)] | – | – | – | – | > 100000 nM | > 100000 nM | > 100000 nM | – |
| Ac-PPPLPQKKIVSRAASSPDGF-NH2 [PEAK2 tandem peptide, non-phosphorylated (residues 812-831)] | – | – | – | – | – | – | > 100000 nM | – |

— PMC10279719
